According to US20240270821A1, “GIP/GLP1/GCG TRI-RECEPTOR AGONISTS AND USES THEREOF” (priority 2023, published 2024):
Substitutions are numbered along the chain they refer to.

T1: human GIP receptor (human) (UniProt P48546)
T1 sequence (looked up): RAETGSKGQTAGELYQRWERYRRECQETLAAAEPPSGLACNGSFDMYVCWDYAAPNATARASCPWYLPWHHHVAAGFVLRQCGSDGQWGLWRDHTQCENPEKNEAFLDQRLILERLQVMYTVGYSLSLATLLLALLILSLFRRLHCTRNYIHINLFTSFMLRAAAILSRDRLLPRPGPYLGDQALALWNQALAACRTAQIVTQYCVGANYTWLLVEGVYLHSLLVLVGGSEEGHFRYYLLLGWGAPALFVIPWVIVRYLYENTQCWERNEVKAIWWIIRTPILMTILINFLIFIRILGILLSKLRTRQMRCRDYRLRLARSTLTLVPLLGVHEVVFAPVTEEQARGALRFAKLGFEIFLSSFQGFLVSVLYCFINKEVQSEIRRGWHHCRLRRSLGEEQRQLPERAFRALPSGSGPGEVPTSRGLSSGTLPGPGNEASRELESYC

B1: Example 474 (peptide)
chain: YXQGTXTSDXXIXLDXKAQXNFIEXLIEGGPSSGEPEPEEG
modifications: synthetic construct; SITE 2: note = 2-Aminoisobutyric Acid; SITE 6: note = alpha-methyl-2-fluoro-L-phenylalanine; SITE 10: note = 3-(4-Pyridyl)-L-alanine; SITE 11: note = alpha-methyl-L-serine; SITE 13: note = alpha-methyl-leucine; SITE 16: note = L-ornithine; SITE 17: note = Lysine is chemically mo
B2: Example 477 (peptide)
chain: B1 chain with X11S, N21X, X25Y, E37P
modifications: synthetic construct; SITE 2: note = 2-Aminoisobutyric Acid; SITE 6: note = alpha-methyl-2-fluoro-L-phenylalanine; SITE 10: note = 3-(4-Pyridyl)-L-alanine; SITE 13: note = alpha-methyl-leucine; SITE 16: note = L-ornithine; SITE 17: note = Lysine is chemically modified through conjugation of the epsil
B3: Example 482 (peptide)
chain: B1 chain with X25Y, E37P
modifications: synthetic construct; SITE 2: note = 2-Aminoisobutyric Acid; SITE 6: note = alpha-methyl-2-fluoro-L-phenylalanine; SITE 10: note = 3-(4-Pyridyl)-L-alanine; SITE 11: note = alpha-methyl-L-serine; SITE 13: note = alpha-methyl-leucine; SITE 16: note = L-ornithine; SITE 17: note = Lysine is chemically mo
B4: Example 492 (peptide)
chain: B1 chain with N21X, X25Y, E35A, E39S
modifications: synthetic construct; SITE 2: note = 2-Aminoisobutyric Acid; SITE 6: note = alpha-methyl-2-fluoro-L-phenylalanine; SITE 10: note = 3-(4-Pyridyl)-L-alanine; SITE 11: note = alpha-methyl-L-serine; SITE 13: note = alpha-methyl-leucine; SITE 16: note = L-ornithine; SITE 17: note = Lysine is chemically mo
B5: Example 471 (peptide)
chain: YXQGTXTSDYSILLDKKAQXAFIEYLEEGGPSSGAPPPEEG
modifications: synthetic construct; SITE 2: note = 2-Aminoisobutyric Acid; SITE 6: note = alpha-methyl-2-fluoro-L-phenylalanine; SITE 17: note = Lysine is chemically modified through conjugation of the epsilon-amino group of the Lysine side chain with (gamma-Glu)2-CO-(CH2)16-CO2H; SITE 20: note = 2-Aminoisobutyric
B6: Example 503 (peptide)
chain: YXQGTXTSDXXIXLDXKAQXXFIEXLQEGGPSSGEPPPEGTE
modifications: synthetic construct; SITE 2: note = 2-Aminoisobutyric Acid; SITE 6: note = alpha-methyl-2-fluoro-L-phenylalanine; SITE 10: note = 3-(4-Pyridyl)-L-alanine; SITE 11: note = alpha-methyl-L-serine; SITE 13: note = alpha-methyl-leucine; SITE 16: note = L-ornithine; SITE 17: note = Lysine is chemically mo
B7: Example 497 (peptide)
chain: YXQGTFTSDXSXXLDKKAQXAFIEXLIEGGPSSGAPPPSGS
modifications: synthetic construct; SITE 2: note = 2-Aminoisobutyric Acid; SITE 10: note = 3-(4-Pyridyl)-L-alanine; SITE 12: note = L-ornithine; SITE 13: note = alpha-methyl-leucine; SITE 17: note = Lysine is chemically modified through conjugation of the epsilon-amino group of the Lysine side chain with (2-[2-(2-
B8: Example 466 (peptide)
chain: HXQGTXTSDXXIXLDXKAQXAFIEYLLEGGPSSGEPPPE
modifications: synthetic construct; SITE 2: note = 2-Aminoisobutyric Acid; SITE 6: note = alpha-methyl-2-fluoro-L-phenylalanine; SITE 10: note = 3-(4-Pyridyl)-L-alanine; SITE 11: note = alpha-methyl-L-serine; SITE 13: note = alpha-methyl-leucine; SITE 16: note = L-ornithine; SITE 17: note = Lysine is chemically mo
B9: Example 487 (peptide)
chain: B8 chain with H1Y, X11S, X16K, L27E
modifications: synthetic construct; SITE 2: note = 2-Aminoisobutyric Acid; SITE 6: note = alpha-methyl-2-fluoro-L-phenylalanine; SITE 10: note = 3-(4-Pyridyl)-L-alanine; SITE 13: note = alpha-methyl-leucine; SITE 17: note = Lysine is chemically modified through conjugation of the epsilon-amino group of the Lysine
B10: Example 479 (peptide)
chain: B8 chain with P37E
modifications: synthetic construct; SITE 2: note = 2-Aminoisobutyric Acid; SITE 6: note = alpha-methyl-2-fluoro-L-phenylalanine; SITE 10: note = 3-(4-Pyridyl)-L-alanine; SITE 11: note = alpha-methyl-L-serine; SITE 13: note = alpha-methyl-leucine; SITE 16: note = L-ornithine; SITE 17: note = Lysine is chemically mo
B11: Example 486 (peptide)
chain: B8 chain with H1Y, X11S, L27E, E39S
modifications: synthetic construct; SITE 2: note = 2-Aminoisobutyric Acid; SITE 6: note = alpha-methyl-2-fluoro-L-phenylalanine; SITE 10: note = 3-(4-Pyridyl)-L-alanine; SITE 13: note = alpha-methyl-leucine; SITE 16: note = L-ornithine; SITE 17: note = Lysine is chemically modified through conjugation of the epsil
B12: Example 478 (peptide)
chain: B8 chain with A21N
modifications: synthetic construct; SITE 2: note = 2-Aminoisobutyric Acid; SITE 6: note = alpha-methyl-2-fluoro-L-phenylalanine; SITE 10: note = 3-(4-Pyridyl)-L-alanine; SITE 11: note = alpha-methyl-L-serine; SITE 13: note = alpha-methyl-leucine; SITE 16: note = L-ornithine; SITE 17: note = Lysine is chemically mo

target: hGLP-1R (Homo sapiens, UniProt P43220); assay: cell-based or functional assay
Sequence (P43220 24-463): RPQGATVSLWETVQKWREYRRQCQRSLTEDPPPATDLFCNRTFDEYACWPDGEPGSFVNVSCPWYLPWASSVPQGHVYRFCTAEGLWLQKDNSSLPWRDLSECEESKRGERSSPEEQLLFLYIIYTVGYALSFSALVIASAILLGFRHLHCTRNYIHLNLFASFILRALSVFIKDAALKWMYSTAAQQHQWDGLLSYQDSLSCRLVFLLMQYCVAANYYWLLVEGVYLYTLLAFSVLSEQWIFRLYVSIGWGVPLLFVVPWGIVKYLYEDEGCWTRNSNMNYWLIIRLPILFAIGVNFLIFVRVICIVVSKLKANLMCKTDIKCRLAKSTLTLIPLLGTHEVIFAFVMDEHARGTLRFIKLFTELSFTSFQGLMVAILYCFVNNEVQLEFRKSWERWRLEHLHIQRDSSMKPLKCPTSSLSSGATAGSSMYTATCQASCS

Row | Binder | Relative cAMP EC50, nM (0.1% casein) | cAMP Rel EC50 (receptor-expressing HEK-293 cells, 1% HSA) | Relative cAMP EC50 | cAMP Rel EC50 (1% HSA)
1 | B1 | 0.236 nM | 10.6 nM |  | 
2 | B2 | 0.173 nM | 18.7 nM |  | 
3 | B3 | 0.177 nM | 14.9 nM |  | 
4 | B4 | 0.146 nM | 9.85 nM |  | 
5 | B5 | 0.317 nM | 37.9 nM |  | 
6 | B6 |  |  | 0.525 nM | 26.1 nM
7 | B7 |  |  | 1.08 nM | 161 nM
8 | B8 | 0.207 nM | 13.3 nM |  | 
9 | B9 | 0.639 nM | 27.7 nM |  | 
10 | B10 | 0.314 nM | 23.5 nM |  | 
11 | B11 | 0.375 nM | 35 nM |  | 
12 | B12 | 0.243 nM | 28.6 nM |  | 

target: T1, human GIP receptor (human); assay: cell-based or functional assay

Row | Binder | Relative cAMP EC50, nM (0.1% casein) | cAMP Rel EC50 (receptor-expressing HEK-293 cells, 1% HSA) | Relative cAMP EC50 | cAMP Rel EC50 (1% HSA)
13 | B1 | 0.0125 nM | 0.743 nM |  | 
14 | B2 | 0.0127 nM | 1.44 nM |  | 
15 | B3 | 0.0139 nM | 1.58 nM |  | 
16 | B4 | 0.0119 nM | 0.84 nM |  | 
17 | B5 | 0.0296 nM | 5.45 nM |  | 
18 | B6 |  |  | 0.0518 nM | 2.02 nM
19 | B7 |  |  | 0.297 nM | 32.6 nM
20 | B8 | 0.0466 nM | 5.65 nM |  | 
21 | B9 | 0.0286 nM | 2.26 nM |  | 
22 | B10 | 0.0905 nM | 7.11 nM |  | 
23 | B11 | 0.0262 nM | 2.57 nM |  | 
24 | B12 | 0.106 nM | 26 nM |  | 

target: human glucagon receptor (human) (UniProt P47871); assay: cell-based or functional assay
Sequence (P47871 26-477): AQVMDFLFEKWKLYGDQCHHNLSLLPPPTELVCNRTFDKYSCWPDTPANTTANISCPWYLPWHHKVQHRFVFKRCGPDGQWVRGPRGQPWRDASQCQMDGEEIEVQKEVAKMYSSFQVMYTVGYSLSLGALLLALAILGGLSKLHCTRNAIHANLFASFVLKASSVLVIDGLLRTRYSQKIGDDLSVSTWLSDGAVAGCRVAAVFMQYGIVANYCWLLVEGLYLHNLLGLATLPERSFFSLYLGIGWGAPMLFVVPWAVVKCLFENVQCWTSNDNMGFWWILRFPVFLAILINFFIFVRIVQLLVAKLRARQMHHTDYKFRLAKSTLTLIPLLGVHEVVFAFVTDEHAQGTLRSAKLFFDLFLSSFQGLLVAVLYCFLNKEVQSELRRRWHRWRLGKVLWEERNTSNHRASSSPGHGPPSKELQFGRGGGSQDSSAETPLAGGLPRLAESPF

Row | Binder | Relative cAMP EC50, nM (0.1% casein) | cAMP Rel EC50 (receptor-expressing HEK-293 cells, 1% HSA) | Relative cAMP EC50 | cAMP Rel EC50 (1% HSA)
25 | B1 | 3.88 nM | 166 nM |  | 
26 | B2 | 5.26 nM | 716 nM |  | 
27 | B3 | 1.41 nM | 325 nM |  | 
28 | B4 | 1.35 nM | 128 nM |  | 
29 | B5 | 2.19 nM | 181 nM |  | 
30 | B6 |  |  | 3.98 nM | 233 nM
31 | B7 |  |  | 2.7 nM | 418 nM
32 | B8 | 5.84 nM | 348 nM |  | 
33 | B9 | 5.36 nM | 477 nM |  | 
34 | B10 | 5.98 nM | 432 nM |  | 
35 | B11 | 4.43 nM | 647 nM |  | 
36 | B12 | 8.07 nM | 665 nM |  | 
